The results in this text go back to the supplement of paper PMC12458215.

In this data set the test system is HEK293T. Nature of the data set: plasma membrane surface immunostaining intensity (anti-HA, deep receptor scanning) (arbitrary fluorescence units); higher = higher plasma membrane expression.

± gives the uncertainty stated by the source.

As to “MRGFNLLLFWGCCVMHSWEGHIRPTRKPNTKGNNCRDSTLCPAYATCTNTVDSYYCACKQGFLSSNGQNHFKDPGVRCKDIDECSQSPQPCGPNSSCKNLSGRYKCSCLDGFSSPTGNDWVPGKPGNFSCTDINECLTSSVCPEHSDCVNSMGSYSCSCQVGFISRNSTCEDVDECADPRACPEHATCNNTVGNYSCFCNPGFESSSGHLSFQGLKASCEDIDECTEMCPINSTCTNTPGSYFCTCHPGFAPSNGQLNFTDQGVECRDIDECRQDPSTCGPNSICTNALGSYSCGCIAGFHPNPEGSQKDGNFSCQRVLFKCKEDVIPDNKQIQQCQEGTAVKPAYVSFCAQINNIFSVLDKVCENKTTVVSLKNTTESFVPVLKQISTWTKFTKEETSSLATVFLESVESMTLASFWKPSANITPAVRTEYLDIESKVINKECSEENVTLDLVAKGDKMKIGCSTIEESESTETTGVAFVSFVGMESVLNERFFKDHQAPLTTSEIKLKMNSRVVGGIMTGEKKDGFSDPIIYTLENIQPKQKFERPICVSWSTDVKGGRWTSFGCVILEASETYTICSCNQMANLAVIMASGELTMDFSLYIISHVGIIISLVCLVLAIATFLLCRSIRNHNTYLHLHLCVCLLLAKTLFLAGIHKTDNKMGCAIIAGFLHYLFLACFFWMLVEAVILFLMVRNLKVVNYFSSRNIKMLHICAFGYGLPMLVVVISASVQPQGYGMHNRCWLNTETGFIWSFLGPVCTVIVINSLLLTWTLWILRQRLSSVNAEVSTLKDTRLLTFKAFAQLFILGCSWVLGIFQIGPVAGVMAYLFTIINSLQGAFIFLIHCLLNGQVREEYKRWITGKTKPSSQSQTSRILLSSMPSASKTG [ADGRE1]”, where the note is “GPCR class: B”, the “plasma membrane surface immunostaining intensity” value was 948 ± 160.

“MRLSAGPDAGPSGNSSPWWPLATGAGNTSREAEALGEGNGPPRDVRNEELAKLEIAVLAVTFAVAVLGNSSVLLALHRTPRKTSRMHLFIRHLSLADLAVAFFQVLPQMCWDITYRFRGPDWLCRVVKHLQVFGMFASAYMLVVMTADRYIAVCHPLKTLQQPARRSRLMIAAAWVLSFVLSTPQYFVFSMIEVNNVTKARDCWATFIQPWGSRAYVTWMTGGIFVAPVVILGTCYGFICYNIWCNVRGKTASRQSKGAEQAGVAFQKGFLLAPCVSSVKSISRAKIRTVKMTFVIVTAYIVCWAPFFIIQMWSVWDPMSVWTESENPTITITALLGSLNSCCNPWIYMFFSGHLLQDCVQSFPCCQNMKEKFNKEDTDSMSRRQTFYSNNRSPTNSTGMWKDSPKSSKSIKFIPVST [AVPR1A]”: the “plasma membrane surface immunostaining intensity” value (GPCR class: A) was found to be 497 ± 41.

Take “MRMEDEDYNTSISYGDEYPDYLDSIVVLEDLSPLEARVTRIFLVVVYSIVCFLGILGNGLVIIIATFKMKKTVNMVWFLNLAVADFLFNVFLPIHITYAAMDYHWVFGTAMCKISNFLLIHNMFTSVFLLTIISSDRCISVLLPVWSQNHRSVRLAYMACMVIWVLAFFLSSPSLVFRDTANLHGKISCFNNFSLSTPGSSSWPTHSQMDPVGYSRHMVVTVTRFLCGFLVPVLIITACYLTIVCKLQRNRLAKTKKPFKIIVTIIITFFLCWCPYHTLNLLELHHTAMPGSVFSLGLPLATALAIANSCMNPILYVFMGQDFKKFKVALFSRLVNALSEDTGHSSYPSHRSFTKMSSMNERTSMNERETGML [CMKLR1]”: under “GPCR class: A”, the “plasma membrane surface immunostaining intensity” value is 747 ± 64.

Regarding “MRPPSPLPARWLCVLAGALAWALGPAGGQAARLQEECDYVQMIEVQHKQCLEEAQLENETIGCSKMWDNLTCWPATPRGQVVVLACPLIFKLFSSIQGRNVSRSCTDEGWTHLEPGPYPIACGLDDKAASLDEQQTMFYGSVKTGYTIGYGLSLATLLVATAILSLFRKLHCTRNYIHMHLFISFILRAAAVFIKDLALFDSGESDQCSEGSVGCKAAMVFFQYCVMANFFWLLVEGLYLYTLLAVSFFSERKYFWGYILIGWGVPSTFTMVWTIARIHFEDYGCWDTINSSLWWIIKGPILTSILVNFILFICIIRILLQKLRPPDIRKSDSSPYSRLARSTLLLIPLFGVHYIMFAFFPDNFKPEVKMVFELVVGSFQGFVVAILYCFLNGEVQAELRRKWRRWHLQGVLGWNPKYRHPSGGSNGATCSTQVSMLTRVSPGARRSSSFQAEVSLV [VIPR1]”, the “plasma membrane surface immunostaining intensity” value (GPCR class: B) stood at 5730 ± 200.

On to “MRRNCTLVTEFILLGLTSRRELQILLFTLFLAIYMVTVAGNLGMIVLIQANAWLHMPMYFFLSHLSFVDLCFSSNVTPKMLEIFLSEKKSISYPACLVQCYLFIALVHVEIYILAVMAFDRYMAICNPLLYGSRMSKSVCSFLITVPYVYGALTGLMETMWTYNLAFCGPNEINHFYCADPPLIKLACSDTYNKELSMFIVAGWNLSFSLFIICISYLYIFPAILKIRSTEGRQKAFSTCGSHLTAVTIFYATLFFMYLRPPSKESVEQGKMVAVFYTTVIPMLNLIIYSLRNKNVKEALIKELSMKIYFS [OR5M8]”, for which the “plasma membrane surface immunostaining intensity” value (GPCR class: A (Olfactory)) came to 115 ± 18.

For the sequence “MRTLLPPALLTCWLLAPVNSIHPECRFHLEIQEEETKCAELLRSQTEKHKACSGVWDNITCWRPANVGETVTVPCPKVFSNFYSKAGNISKNCTSDGWSETFPDFVDACGYSDPEDESKITFYILVKAIYTLGYSVSLMSLATGSIILCLFRKLHCTRNYIHLNLFLSFILRAISVLVKDDVLYSSSGTLHCPDQPSSWVGCKLSLVFLQYCIMANFFWLLVEGLYLHTLLVAMLPPRRCFLAYLLIGWGLPTVCIGAWTAARLYLEDTGCWDTNDHSVPWWVIRIPILISIIVNFVLFISIIRILLQKLTSPDVGGNDQSQYKRLAKSTLLLIPLFGVHYMVFAVFPISISSKYQILFELCLGSFQGLVVAVLYCFLNSEVQCELKRKWRSRCPTPSASRDYRVCGSSFSRNGSEGALQFHRGSRAQSFLQTETSVI [VIPR2]”, the “plasma membrane surface immunostaining intensity” value (GPCR class: B) was 6470 ± 74.

For the sequence “MRTLNTSAMDGTGLVVERDFSVRILTACFLSLLILSTLLGNTLVCAAVIRFRHLRSKVTNFFVISLAVSDLLVAVLVMPWKAVAEIAGFWPFGSFCNIWVAFDIMCSTASILNLCVISVDRYWAISSPFRYERKMTPKAAFILISVAWTLSVLISFIPVQLSWHKAKPTSPSDGNATSLAETIDNCDSSLSRTYAISSSVISFYIPVAIMIVTYTRIYRIAQKQIRRIAALERAAVHAKNCQTTTGNGKPVECSQPESSFKMSFKRETKVLKTLSVIMGVFVCCWLPFFILNCILPFCGSGETQPFCIDSNTFDVFVWFGWANSSLNPIIYAFNADFRKAFSTLLGCYRLCPATNNAIETVSINNNGAAMFSSHHEPRGSISKECNLVYLIPHAVGSSEDLKKEEAAGIARPLEKLSPALSVILDYDTDVSLEKIQPITQNGQHPT [DRD1]”, the “plasma membrane surface immunostaining intensity” value (GPCR class: A) was determined as 1460 ± 310.

Regarding “MRWLWPLAVSLAVILAVGLSRVSGGAPLHLGRHRAETQEQQSRSKRGTEDEEAKGVQQYVPEEWAEYPRPIHPAGLQPTKPLVATSPNPGKDGGTPDSGQELRGNLTGAPGQRLQIQNPLYPVTESSYSAYAIMLLALVVFAVGIVGNLSVMCIVWHSYYLKSAWNSILASLALWDFLVLFFCLPIVIFNEITKQRLLGDVSCRAVPFMEVSSLGVTTFSLCALGIDRFHVATSTLPKVRPIERCQSILAKLAVIWVGSMTLAVPELLLWQLAQEPAPTMGTLDSCIMKPSASLPESLYSLVMTYQNARMWWYFGCYFCLPILFTVTCQLVTWRVRGPPGRKSECRASKHEQCESQLNSTVVGLTVVYAFCTLPENVCNIVVAYLSTELTRQTLDLLGLINQFSTFFKGAITPVLLLCICRPLGQAFLDCCCCCCCEECGGASEASAANGSDNKLKTEVSSSIYFHKPRESPPLLPLGTPC [GPR37L1]”, where the note is “GPCR class: A”, the “plasma membrane surface immunostaining intensity” value is 148 ± 21.

On to “MSANATLKPLCPILEQMSRLQSHSNTSIRYIDHAAVLLHGLASLLGLVENGVILFVVGCRMRQTVVTTWVLHLALSDLLASASLPFFTYFLAVGHSWELGTTFCKLHSSIFFLNMFASGFLLSAISLDRCLQVVRPVWAQNHRTVAAAHKVCLVLWALAVLNTVPYFVFRDTISRLDGRIMCYYNVLLLNPGPDRDATCNSRQVALAVSKFLLAFLVPLAIIASSHAAVSLRLQHRGRRRPGRFVRLVAAVVAAFALCWGPYHVFSLLEARAHANPGLRPLVWRGLPFVTSLAFFNSVANPVLYVLTCPDMLRKLRRSLRTVLESVLVDDSELGGAGSSRRRRTSSTARSASPLALCSRPEEPRGPARLLGWLLGSCAASPQTGPLNRALSSTSS [PTGDR2]”, for which the “plasma membrane surface immunostaining intensity” value (GPCR class: A) turned out to be 6413 ± 49.

In the case of “MSASNITLTHPTAFLLVGIPGLEHLHIWISIPFCLAYTLALLGNCTLLLIIQADAALHEPMYLFLAMLAAIDLVLSSSALPKMLAIFWFRDREINFFACLAQMFFLHSFSIMESAVLLAMAFDRYVAICKPLHYTKVLTGSLITKIGMAAVARAVTLMTPLPFLLRCFHYCRGPVIAHCYCEHMAVVRLACGDTSFNNIYGIAVAMFIVVLDLLLVILSYIFILQAVLLLASQEARYKAFGTCVSHIGAILAFYTTVVISSVMHRVARHAAPHVHILLANFYLLFPPMVNPIIYGVKTKQIRESILGVFPRKDM [OR52K2]”, the “plasma membrane surface immunostaining intensity” value (GPCR class: A (Olfactory)) amounted to 441 ± 130.

Turning to “MSEEEFYLFKNISSVGPWDGPQYHIAPVWAFYLQAAFMGTVFLIGFPLNAMVLVATLRYKKLRQPLNYILVNVSFGGFLLCIFSVFPVFVASCNGYFVFGRHVCALEGFLGTVAGLVTGWSLAFLAFERYIVICKPFGNFRFSSKHALTVVLATWTIGIGVSIPPFFGWSRFIPEGLQCSCGPDWYTVGTKYRSESYTWFLFIFCFIVPLSLICFSYTQLLRALKAVAAQQQESATTQKAEREVSRMVVVMVGSFCVCYVPYAAFAMYMVNNRNHGLDLRLVTIPSFFSKSACIYNPIIYCFMNKQFQACIMKMVCGKAMTDESDTCSSQKTEVSTVSSTQVGPN [OPN1SW]”, the “plasma membrane surface immunostaining intensity” value (GPCR class: A) was found to be 2770 ± 310.

For the sequence “MSENGSFANCCEAGGWAVRPGWSGAGSARPSRTPRPPWVAPALSAVLIVTTAVDVVGNLLVILSVLRNRKLRNAGNLFLVSLALADLVVAFYPYPLILVAIFYDGWALGEEHCKASAFVMGLSVIGSVFNITAIAINRYCYICHSMAYHRIYRRWHTPLHICLIWLLTVVALLPNFFVGSLEYDPRIYSCTFIQTASTQYTAAVVVIHFLLPIAVVSFCYLRIWVLVLQARRKAKPESRLCLKPSDLRSFLTMFVVFVIFAICWAPLNCIGLAVAINPQEMAPQIPEGLFVTSYLLAYFNSCLNAIVYGLLNQNFRREYKRILLALWNPRHCIQDASKGSHAEGLQSPAPPIIGVQHQADAL [MTNR1B]”, the “plasma membrane surface immunostaining intensity” value (GPCR class: A) was 280 ± 17.

On to “MSGDNSSSLTPGFFILNGVPGLEATHIWISLPFCFMYIIAVVGNCGLICLISHEEALHRPMYYFLALLSFTDVTLCTTMVPNMLCIFWFNLKEIDFNACLAQMFFVHMLTGMESGVLMLMALDRYVAICYPLRYATILTNPVIAKAGLATFLRNVMLIIPFTLLTKRLPYCRGNFIPHTYCDHMSVAKVSCGNFKVNAIYGLMVALLIGVFDICCISVSYTMILQAVMSLSSADARHKAFSTCTSHMCSIVITYVAAFFTFFTHRFVGHNIPNHIHIIVANLYLLLPPTMNPIVYGVKTKQIQEGVIKFLLGDKVSFTYDK [OR52N2]”, for which the “plasma membrane surface immunostaining intensity” value (GPCR class: A (Olfactory)) was 157 ± 54.

With “MSGENVTKVSTFILVGLPTAPGLQYLLFLLFLLTYLFVLVENLAIILIVWSSTSLHRPMYYFLSSMSFLEIWYVSDITPKMLEGFLLQQKRISFVGCMTQLYFFSSLVCTECVLLASMAYDRYVAICHPLRYHVLVTPGLCLQLVGFSFVSGFTISMIKVCFISSVTFCGSNVLNHFFCDISPILKLACTDFSTAELVDFILAFIILVFPLLATILSYWHITLAVLRIPSATGCWRAFSTCASHLTVVTVFYTALLFMYVRPQAIDSQSSNKLISAVYTVVTPIINPLIYCLRNKEFKDALKKALGLGQTSH [OR6B2]”, the “plasma membrane surface immunostaining intensity” value (GPCR class: A (Olfactory)) was determined as 153 ± 9.6.
